Target: T1, Twin‐Strep (TS)‐tagged DGKζ (TS‐DGKζ) (human, UniProt Q13574 1-928)
T1 construct: full-length (FL) DGKζ (DGKζ1, 104 kDa), human; no cleavage is reported and the protein is detected by anti-TS; also called purified DGKζ; source: HEK293 cells, purified (Strep-Tactin XT beads, without detergents); not shown: Twin-Strep, N-terminal, kept
Experiment: pull-down; purified GST-SMS1-CT or GST-SMSr-NT on glutathione-Sepharose beads, purified Twin-Strep-tagged DGKζ added for 2 h at 4 °C; 20 mM Tris-HCl pH 7.5, 150 mM NaCl, 1 mM EDTA, 0.1% Triton X-100; western blot with anti-GST and anti-TS
Settings: both partners purified

T1 sequence (Q13574 whole entry): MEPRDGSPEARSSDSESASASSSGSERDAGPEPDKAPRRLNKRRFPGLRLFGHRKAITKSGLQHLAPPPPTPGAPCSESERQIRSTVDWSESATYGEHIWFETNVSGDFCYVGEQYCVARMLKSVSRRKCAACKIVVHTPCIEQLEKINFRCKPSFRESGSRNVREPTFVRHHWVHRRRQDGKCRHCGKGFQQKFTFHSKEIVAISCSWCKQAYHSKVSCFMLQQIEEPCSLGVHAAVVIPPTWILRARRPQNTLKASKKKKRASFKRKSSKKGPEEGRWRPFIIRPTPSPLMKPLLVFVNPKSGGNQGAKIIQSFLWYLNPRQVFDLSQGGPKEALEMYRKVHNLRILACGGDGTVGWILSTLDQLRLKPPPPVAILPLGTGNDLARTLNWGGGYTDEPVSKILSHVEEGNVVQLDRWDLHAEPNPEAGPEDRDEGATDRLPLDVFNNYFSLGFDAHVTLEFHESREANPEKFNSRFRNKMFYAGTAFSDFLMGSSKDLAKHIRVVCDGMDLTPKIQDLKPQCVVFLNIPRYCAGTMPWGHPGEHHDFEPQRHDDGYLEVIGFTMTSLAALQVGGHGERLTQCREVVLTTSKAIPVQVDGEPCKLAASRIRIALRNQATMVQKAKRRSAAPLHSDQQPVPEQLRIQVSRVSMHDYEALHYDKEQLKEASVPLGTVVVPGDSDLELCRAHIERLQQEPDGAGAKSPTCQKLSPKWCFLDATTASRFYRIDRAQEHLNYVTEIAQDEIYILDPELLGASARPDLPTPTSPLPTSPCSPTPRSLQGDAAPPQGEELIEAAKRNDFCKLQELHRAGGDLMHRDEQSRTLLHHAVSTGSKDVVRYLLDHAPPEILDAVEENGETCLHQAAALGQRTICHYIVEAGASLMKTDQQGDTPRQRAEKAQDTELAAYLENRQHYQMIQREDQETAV

B1: GST‐SMSr‐NT (domain or fragment, human, UniProt Q96LT4 1-151, looked up)
chain: MAGPNQLCIRRWTTKHVAVWLKDEGFFEYVDILCNKHRLDGITLLTLTEYDLRSPPLEIKVLGDIKRLMLSVRKLQKIHIDVLEEMGYNSDSPMGSMTPFISALQSTDWLCNGELSHDCDGPITDLNSDQYQYMNGKNKHSVRRLDPEYWK
notes: SMSr, N-terminal cytosolic region (contains SAMD); SMSr-NT is defined as aa 1–151; also called GST-fused SMSr‐NT; GST-tagged SMSr‐NT; source: bacterially expressed, purified (glutathione-Sepharose beads); not shown: GST, N-terminal, kept
  binding result: binds

B2: GST‐SMS1‐CT (domain or fragment, human, UniProt Q86VZ5 348-413, looked up)
chain: HTMANQQVLKEASQMNLLARVWWYRPFQYFEKNVQGIVPRSYHWPFPWPVVHLSRQVKYSRLVNDT
notes: SMS1, C-terminal cytosolic region; SMS1-CT is defined as aa 348–413; also called GST-fused SMS1‐CT; GST-tagged SMS1‐CT; source: bacterially expressed, purified (glutathione-Sepharose beads); not shown: GST, N-terminal, kept
  binding result: binds

Source: PMC10315710, “Diacylglycerol kinase ζ interacts with sphingomyelin synthase 1 and sphingomyelin synthase‐related protein via different regions” (FEBS Open Bio, 2023)
